US20240166765A1, “INFLAMMATORY DISEASE TREATMENT USING ANTI-TISSUE FACTOR ANTIBODIES” (Iconic Therapeutics LLC, priority 2020, published 2024)

Assays:
[1] = target: h1-107_r (human/rat chimera); test: live cell staining, flow cytometry
[2] = target: r141-194_h (rat/human chimera) (UniProt P42533); test: live cell staining, flow cytometry
[3] = target: h1-107_r (human/rat chimera); test: live cell staining, flow cytometry, HEK293 cells expressing the construct
[4] = target: r141-194_h (rat/human chimera) (UniProt P42533); test: as above

Chain of h1-107_r (human/rat chimera) (chain, as listed by the source mutant limits assumed): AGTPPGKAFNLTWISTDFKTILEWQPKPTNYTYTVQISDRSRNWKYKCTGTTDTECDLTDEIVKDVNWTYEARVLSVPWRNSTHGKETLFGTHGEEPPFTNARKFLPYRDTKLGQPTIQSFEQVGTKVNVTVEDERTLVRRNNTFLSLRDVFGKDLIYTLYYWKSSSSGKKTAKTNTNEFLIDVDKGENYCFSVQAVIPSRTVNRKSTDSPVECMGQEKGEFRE

- Percent antibody binding to TF construct relative to hTF [1]: 41%
- Percent antibody binding to TF construct relative to hTF [2]: 32%
- Percentage antibody binding to TF construct relative to hTF [3]: < 50%
- Percentage antibody binding to TF construct relative to hTF [4]: < 50%
Substance: 5G9 (antibody)
